The target of this experiment is bril-ACKR3WT (human) (UniProt P25106). Nature of the experiment: flow cytometry on cells. For orientation: In flow cytometry, cells or beads pass a laser one at a time.
Chain of bril-ACKR3WT (human) (P25106 2-332): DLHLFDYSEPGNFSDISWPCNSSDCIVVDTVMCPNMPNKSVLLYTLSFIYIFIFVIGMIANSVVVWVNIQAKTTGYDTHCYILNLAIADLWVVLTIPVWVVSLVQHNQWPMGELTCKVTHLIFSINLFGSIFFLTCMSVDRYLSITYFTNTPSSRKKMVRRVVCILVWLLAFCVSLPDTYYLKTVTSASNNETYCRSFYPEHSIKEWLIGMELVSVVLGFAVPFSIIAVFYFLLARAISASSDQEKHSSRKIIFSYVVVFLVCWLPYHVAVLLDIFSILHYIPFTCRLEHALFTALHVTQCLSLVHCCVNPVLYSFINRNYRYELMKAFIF

For the substance “HA-tagged CXCL12P2G (from UniProt P48061 22-93) (ligand)”, the dissociative half-life was 7.2 min.

Values taken from article PMC7063449.
